Patent US20230279089A1 (GlaxoSmithKline, published 2023)

T1: Human TLL1 (human, UniProt O43897 148-1013, limits assumed)
T1 sequence (looked up): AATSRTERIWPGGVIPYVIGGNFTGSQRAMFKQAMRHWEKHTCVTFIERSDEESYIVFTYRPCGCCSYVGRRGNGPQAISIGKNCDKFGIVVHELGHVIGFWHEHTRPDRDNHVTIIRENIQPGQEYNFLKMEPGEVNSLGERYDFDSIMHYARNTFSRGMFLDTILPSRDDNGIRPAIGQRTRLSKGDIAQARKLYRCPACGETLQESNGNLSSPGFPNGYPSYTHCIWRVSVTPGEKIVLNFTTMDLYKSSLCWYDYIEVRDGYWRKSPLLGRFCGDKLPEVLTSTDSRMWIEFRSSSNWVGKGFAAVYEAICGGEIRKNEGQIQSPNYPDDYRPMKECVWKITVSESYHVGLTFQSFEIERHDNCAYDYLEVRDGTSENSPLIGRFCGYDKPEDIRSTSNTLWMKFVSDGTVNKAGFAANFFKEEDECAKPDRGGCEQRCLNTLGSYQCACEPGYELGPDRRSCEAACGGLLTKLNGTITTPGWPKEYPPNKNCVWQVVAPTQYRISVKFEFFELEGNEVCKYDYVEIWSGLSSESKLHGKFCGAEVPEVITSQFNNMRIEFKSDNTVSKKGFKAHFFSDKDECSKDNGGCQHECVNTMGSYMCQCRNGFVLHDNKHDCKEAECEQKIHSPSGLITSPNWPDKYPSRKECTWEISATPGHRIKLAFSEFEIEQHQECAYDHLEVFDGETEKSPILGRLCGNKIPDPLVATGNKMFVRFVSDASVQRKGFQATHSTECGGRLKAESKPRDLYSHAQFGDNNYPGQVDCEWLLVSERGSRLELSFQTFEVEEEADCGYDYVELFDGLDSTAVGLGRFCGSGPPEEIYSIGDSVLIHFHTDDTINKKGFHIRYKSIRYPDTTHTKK

T2: Human TLL2 (human, UniProt Q9Y6L7 150-1015, limits assumed)
T2 sequence (looked up): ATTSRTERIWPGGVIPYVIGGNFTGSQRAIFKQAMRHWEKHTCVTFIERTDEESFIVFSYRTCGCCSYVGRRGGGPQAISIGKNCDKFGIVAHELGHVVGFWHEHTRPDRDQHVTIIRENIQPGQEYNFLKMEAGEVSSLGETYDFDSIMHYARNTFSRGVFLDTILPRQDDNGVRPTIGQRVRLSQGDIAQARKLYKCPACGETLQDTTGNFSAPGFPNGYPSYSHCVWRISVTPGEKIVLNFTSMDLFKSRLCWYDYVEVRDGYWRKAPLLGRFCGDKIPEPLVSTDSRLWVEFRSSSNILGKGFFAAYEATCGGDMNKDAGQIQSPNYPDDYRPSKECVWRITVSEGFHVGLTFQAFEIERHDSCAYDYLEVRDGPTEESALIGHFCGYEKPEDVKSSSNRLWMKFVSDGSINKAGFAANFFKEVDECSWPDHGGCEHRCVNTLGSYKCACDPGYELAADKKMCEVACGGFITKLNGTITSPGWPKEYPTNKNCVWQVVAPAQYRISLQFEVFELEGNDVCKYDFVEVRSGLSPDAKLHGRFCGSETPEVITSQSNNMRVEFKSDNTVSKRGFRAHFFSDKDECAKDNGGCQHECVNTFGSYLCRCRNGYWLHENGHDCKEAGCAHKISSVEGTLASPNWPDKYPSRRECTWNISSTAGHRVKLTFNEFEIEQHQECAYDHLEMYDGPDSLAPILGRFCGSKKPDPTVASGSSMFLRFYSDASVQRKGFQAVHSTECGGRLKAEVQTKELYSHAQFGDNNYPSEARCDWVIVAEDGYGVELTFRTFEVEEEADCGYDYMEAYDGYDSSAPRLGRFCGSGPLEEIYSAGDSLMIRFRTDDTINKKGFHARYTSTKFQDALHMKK

T3: Cyno TLL1 (cyno, UniProt A0A1D5QYV0 148-1013 (rhesus entry))
T3 sequence: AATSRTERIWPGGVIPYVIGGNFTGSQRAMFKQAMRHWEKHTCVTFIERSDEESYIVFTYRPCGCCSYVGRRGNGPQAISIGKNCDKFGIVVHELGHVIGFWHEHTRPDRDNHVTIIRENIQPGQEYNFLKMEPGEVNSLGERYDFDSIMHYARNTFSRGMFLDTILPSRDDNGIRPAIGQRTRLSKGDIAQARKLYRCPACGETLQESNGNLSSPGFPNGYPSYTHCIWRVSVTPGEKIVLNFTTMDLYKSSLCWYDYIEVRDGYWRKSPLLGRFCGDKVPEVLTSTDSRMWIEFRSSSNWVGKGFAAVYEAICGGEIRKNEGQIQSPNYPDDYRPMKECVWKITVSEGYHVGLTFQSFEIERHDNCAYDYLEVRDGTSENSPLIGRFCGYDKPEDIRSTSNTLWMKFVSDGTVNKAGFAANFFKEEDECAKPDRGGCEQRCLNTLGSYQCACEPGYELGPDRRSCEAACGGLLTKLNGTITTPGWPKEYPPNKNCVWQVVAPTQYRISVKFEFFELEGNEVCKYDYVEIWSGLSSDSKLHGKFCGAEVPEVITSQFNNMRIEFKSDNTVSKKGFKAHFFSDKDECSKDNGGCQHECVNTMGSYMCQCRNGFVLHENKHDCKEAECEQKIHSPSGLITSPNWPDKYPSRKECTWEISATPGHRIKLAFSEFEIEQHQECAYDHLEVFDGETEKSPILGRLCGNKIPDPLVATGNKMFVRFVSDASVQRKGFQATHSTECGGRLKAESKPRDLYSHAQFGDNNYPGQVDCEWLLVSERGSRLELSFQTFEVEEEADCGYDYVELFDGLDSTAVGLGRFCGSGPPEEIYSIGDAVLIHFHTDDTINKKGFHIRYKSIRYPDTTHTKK


How the values were obtained:
Experiment in all cases: cell-based or functional assay
[1] = target: T1, Human TLL1
[2] = target: T2, Human TLL2
[3] = target: T3, Cyno TLL1

| IC50, FRET enzyme activity, 250 pM biotinylated huTLL-1 [1] | IC50, FRET enzyme activity, 500 pM huTLL-2 [2] | IC50, FRET enzyme activity, 750 pM biotinylated cynoTLL-1 [3] | Binder |
| --- | --- | --- | --- |
| 0.06 nM | 0.05 nM | 0.11 nM | 13Y039-4B06-4364 (antibody, human IgG1, kappa, V domains shown, Fully human IgG1 LAGA, kappa; HEK expressed) VH: QVQLVQSGAEVKKPGASVKVSCKASGYTFRGYYMSWVRQAPGQGLEWMGWINPNSGETIYAQKFQGRVTMTRDTSISTAYMELSRLRSDDTAVYYCARDTGELDGMNWYFDLWGRGTLVTVSS VL: EIVLTQSPATLSLSPGERATLSCRASQSVSSYLAWYQQKPGQAPRLLIYDASNRATGIPARFSGSGSGTDFTLTISSLEPEDFAVYYCQQSDSWPPTFGGGTKVEIKR |
| 0.07 nM | 0.09 nM | 0.15 nM | 13Y039-4B06-4376 (antibody, human IgG1, kappa, V domains shown, Fully human IgG1 LAGA, kappa; HEK expressed) VH: QVQLVQSGAEVKKPGASVKVSCKASGYTFMGYYMNWVRQAPGQGLEWMGWINPSSGETNYAQKFQGRVTMTRDTSISTAYMELSRLRSDDTAVYYCARDTGELDGMNWYFDLWGRGTLVTVSS VL: EIVLTQSPATLSLSPGERATLSCRASQSVSSYLAWYQQKPGQAPRLLIYDASNRATGIPARFSGSGSGTDFTLTISSLEPEDFAVYYCQQSDSWPPTFGGGTKVEIKR |
| 0.04 nM | 0.1 nM | 0.08 nM | 13Y039-4B06-4373 (antibody, human IgG1, kappa, V domains shown, Fully human IgG1 LAGA, kappa; HEK expressed) VH: QVQLVQSGAEVKKPGASVKVSCKASGYTFRSYYMNWVRQAPGQGLEWMGIINPSSGETSYAQKFQGRVTMTRDTSTSTVYMELSSLRSEDTAVYYCARDTGELDGMNWYFDLWGRGTLVTVSS VL: EIVLTQSPATLSLSPGERATLSCRASQSVSSYLAWYQQKPGQAPRLLIYDASNRATGIPARFSGSGSGTDFTLTISSLEPEDFAVYYCQQSDSWPPTFGGGTKVEIKR |
